Test results as given in patent US10669549B2, “Gold optimized CAR T-cells” (Chimera Bioengineering, Inc., priority 2016, dated 2020).

What was measured:
Type in all cases: cell-based
[1] = Expression from constructs with 3′-UTR RDEs after removal of microRNA binding sites; settings: MIR186 micro-RNA sites removed from the 3′-UTR of IL-2
Description: The AU-rich element from the 3′-UTR of IL-2 has mir-181 and mir 186 microRNA binding sites. Different combinations of the microRNA sites were removed from the 3′-UTR of IL-2. When the MIR186 micro-RNA sites were removed from the 3′-UTR of IL-2 the dynamic range of expression from constructs with this UTR increased 50 fold. The modified IL-2, 3′-UTR replaces CTT in the sequence with GAA and is shown below (the new GAA is underlined in the sequence):
Different combinations of the micro-RNA sites were removed from the 3′UTR of IFNg and tested for increased expression. When the mir125 micro-RNA sites were removed from the 3′-UTR of IFN-γ the expression rate from constructs with this UTR is increased.

CD4+ T-cells [2] = assay: Luciferase bioluminescence of transduced T-cells, resting versus stimulated; settings: for bioluminescence as compared to T-cells at resting: Raji target cells (activate CAR), FIG. 17; for amount of bioluminescence, comparison among RDE constructs: with either promoter (MinP or NFAT)
Description: The anti-CD19 CAR cassette and the insert with the luciferase-RDE1 are transcribed in opposite directions, and the control regions for each are located in between the two insert/cassettes. The control region for the Luciferase-RDE1 insert and Luciferase-3′-UTR were either a MinP promoter or an NFAT promoter having the sequences of:
The control region of the anti-CD19 CAR cassette was the MND promoter. CD4+ T-cells were transduced with the bicistronic construct.
The transduced T cells were allowed to return to resting state, and then were tested after stimulation as follows. For the ‘no stimulation’ set, transduced T-cells were incubated for 24 h alone in medium. For the ‘Raji co-culture’ set and the “CD3/CD28 Beads” set, CD19+ Raji B cells or anti-CD3/anti-CD28 beads were incubated with the transduced T cells for 24 h. At 24 h, the T cells were stained for CD25 and CD69, which are activation markers, and subject to flow cytometry to measure these markers and luciferase expression in the T cells.
Combinations of these inserts/cassettes shown in FIG. 17 were placed in the similar lenti virus constructs. The anti-CD19 CAR cassette and the insert with the luciferase-RDE are transcribed in opposite directions, and the control regions for each are located in between the two insert/cassettes. The control region for the Luciferase-RDE insert and Luciferase-3′-UTR were either a MinP promoter or an NFAT promoter. The control region of the anti-CD19 CAR cassette was the MND promoter, and CD4+ T-cells were transduced with the bicistronic construct.
(§1) The transduced T cells were allowed to return to resting state, and then were tested after stimulation as follows. For the ‘no stimulation’ set, transduced T-cells were incubated for 24 h alone in medium. For the ‘Raji co-culture’ set CD19+ Raji B cells were incubated with the transduced T cells for 24 h. At 24 h, the T cells were stained for CD25 and CD69, which are activation markers, and subject to flow cytometry to measure these markers and luciferase expression in the T cells.

CD4+ T-cells [3] = assay: IL-12 expression of transduced T cells by ELISA, resting versus Raji co-culture
Description: The anti-CD19 CAR cassette and the insert with the IL-12-RDE1 are transcribed in opposite directions, and the control regions for each are located in between the two insert/cassettes. The control region for the IL-12-RDE1 insert and IL-12 3′-UTR were either a minP promoter or an NFAT promoter. The control region of the anti-CD19 CAR cassette was the MND promoter. CD4+ T-cells were transduced with the bicistronic construct.
as §1, with “co-culture’ set,” for “co-culture’ set”, “these markers. IL-12” for “these markers and luciferase”, “T cells was measured by ELISA.” for “T cells.”

Molecule | increase of dynamic range of expression from constructs with this UTR [1] | increase in bioluminescence with CAR stimulation (CD4+ T-cells [2]; MinP promoter) | increase in bioluminescence with CAR stimulation (CD4+ T-cells [2]; NFAT promoter) | bioluminescence as compared to T-cells at resting (CD4+ T-cells [2]) | amount of bioluminescence, comparison among RDE constructs (CD4+ T-cells [2]) | on-off response from CAR stimulation versus TCR stimulation (CD4+ T-cells [2]; NFAT promoter, luciferase) | amount of bioluminescence compared with luciferase not controlled by an RDE (3′-UTR) (CD4+ T-cells [2]; all conditions, same promoter) | on-off response with NFAT promoter compared with MinP promoter and the corresponding RDE (CD4+ T-cells [2]; luciferase, Raji co-culture) | change in IL-12 expression from resting to CAR stimulation (CD4+ T-cells [3]; MinP promoter) | change in IL-12 expression from resting to CAR stimulation (CD4+ T-cells [3]; NFAT promoter)
RDE3: 3′-UTR of IL-2 modified to remove the mir186 sites (CTT replaced with GAA, SEQ ID NO: 29) (nucleic acid, listed as Homo sapiens) DNA: TAATTAAGTGCTTCCCACTTAAAACATATCAGGCCTTCTATTTATTTAAATATTTAAATTTTATATTTATTGTTGAATGTATGGTTTGCTACCTATTGTAACTATTATTCTTAATCTTAAAACTATAAATATGGATCTTTTATGATTGAATTTGTAAGCCCTAGGGGCTCTAAAATGGTTTCACTTATTTATCCCAAAATATTTATTATTATGTTGAATGTTAAATATAGTATCTATGTAGATTGGTTAGTAAAACTATTTAATAAATTTGATAAATATAAA | 50 fold | 1.4 fold | 1.3 fold | increase in bioluminescence | highest amount of bioluminescence |  |  |  |  | 
RDE2: RNA destabilizing element: endogenous 3′-UTR of IL-2 (SEQ ID NO: 28), controlling luciferase in anti-CD19 CAR CD4+ T-cells (nucleic acid, listed as Homo sapiens) DNA: TAATTAAGTGCTTCCCACTTAAAACATATCAGGCCTTCTATTTATTTAAATATTTAAATTTTATATTTATTGTTGAATGTATGGTTTGCTACCTATTGTAACTATTATTCTTAATCTTAAAACTATAAATATGGATCTTTTATGATTCTTTTTGTAAGCCCTAGGGGCTCTAAAATGGTTTCACTTATTTATCCCAAAATATTTATTATTATGTTGAATGTTAAATATAGTATCTATGTAGATTGGTTAGTAAAACTATTTAATAAATTTGATAAATATAAA |  | 1.8 fold | 3.1 fold | increase in bioluminescence | between RDE3 and RDE1 |  |  |  |  | 
RDE1: RNA destabilizing element: endogenous 3′-UTR of IFNg (SEQ ID NO: 30), controlling luciferase or IL-12 in anti-CD19 CAR CD4+ T-cells (nucleic acid, listed as Homo sapiens) DNA: TGGTTGTCCTGCCTGCAATATTTGAATTTTAAATCTAAATCTATTTATTAATATTTAACATTATTTATATGGGGAATATATTTTTAGACTCATCAATCAAATAAGTATTTATAATAGCAACTTTTGTGTAATGAAAATGAATATCTATTAATATATGTATTATTTATAATTCCTATATCCTGTGACTGTCTCACTTAATCCTTTGTTTTCTGACTAATTAGGCAAGGCTATGTGATTACAAGGCTTTATCTCAGGGGCCAACTAGGCAGCCAACCTAAGCAAGATCCCATGGGTTGTGTGTTTATTTCACTTGATGATACAATGAACACTTATAAGTGAAGTGATACTATCCAGTTACTGCCGGTTTGAAAATATGCCTGCAATCTGAGCCAGTGCTTTAATGGCATGTCAGACAGAACTTGAATGTGTCAGGTGACCCTGATGAAAACATAGCATCTCAGGAGATTTCATGCCTGGTGCTTCCAAATATTGTTGACAACTGTGACTGTACCCAAATGGAAAGTAACTCATTTGTTAAAATTATCAATATCTAATATATATGAATAAAGTGTAAGTTCACAACTA |  | 4.1 fold | 8.5 fold | increase in bioluminescence | lowest amount of bioluminescence | larger on-off response | lower amounts of bioluminescence | larger on-off response | 6.3 fold | 168 fold
